Results from PMC7072996, “Engineering Herbicide-Tolerance Rice Expressing an Acetohydroxyacid Synthase with a Single Amino Acid Deletion” (International Journal of Molecular Sciences, 2020).

B1: AHAS-WT (rice acetohydroxyacid synthase) (Oryza sativa Japonica Group; DEL548-548) (protein)
chain: TPLRPWGPAEPRKGADILVEALERCGVSDVFAYPGGASMEIHQALTRSPVITNHLFRHEQGEAFAASGYARASGRVGVCVATSGPGATNLVSALADALLDSVPMVAITGQVPRRMIGTDAFQETPIVEVTRSITKHNYLVLDVEDIPRVIQEAFFLASSGRPGPVLVDIPKDIQQQMAVPVWDTSMNLPGYIARLPKPPATELLEQVLRLVGESRRPILYVGGGCSASGDELRWFVELTGIPVTTTLMGLGNFPSDDPLSLRMLGMHGTVYANYAVDKADLLLAFGVRFDDRVTGKIEAFASRAKIVHIDIDPAEIGKNKQPHVSICADVKLALQGLNALLQQSTTKTSSDFSAWHNELDQQKREFPLGYKTFGEEIPPQYAIQVLDELTKGEAIIATGVGQHQMWAAQYYTYKRPRQWLSSAGLGAMGFGLPAAAGASVANPGVTVVDIDGDGSFLMNIQELALIRIENLPVKVMVLNNQHLGMVVQEDRFYKANRAHTYLGNPECESEIYPDFVTIAKGFNIPAVRVTKKSEVRAAIKKMLETPGPYLLDIIVPHQEHVLPMIPSGGAFKDMILDGDGRTVY
notes: mature AHAS, N-terminal 59-residue signal (transit) peptide removed; pGEX4T2, E. coli Rosetta; GST tag cut by thrombin; 64 kDa; WT mainly dimer (128 kDa), small tetramer peak (256 kDa); deletion mutant dimer only
B2: AHAS-WT (rice acetohydroxyacid synthase) (Oryza sativa Japonica Group) (protein)
chain: TPLRPWGPAEPRKGADILVEALERCGVSDVFAYPGGASMEIHQALTRSPVITNHLFRHEQGEAFAASGYARASGRVGVCVATSGPGATNLVSALADALLDSVPMVAITGQVPRRMIGTDAFQETPIVEVTRSITKHNYLVLDVEDIPRVIQEAFFLASSGRPGPVLVDIPKDIQQQMAVPVWDTSMNLPGYIARLPKPPATELLEQVLRLVGESRRPILYVGGGCSASGDELRWFVELTGIPVTTTLMGLGNFPSDDPLSLRMLGMHGTVYANYAVDKADLLLAFGVRFDDRVTGKIEAFASRAKIVHIDIDPAEIGKNKQPHVSICADVKLALQGLNALLQQSTTKTSSDFSAWHNELDQQKREFPLGYKTFGEEIPPQYAIQVLDELTKGEAIIATGVGQHQMWAAQYYTYKRPRQWLSSAGLGAMGFGLPAAAGASVANPGVTVVDIDGDGSFLMNIQELALIRIENLPVKVMVLNNQHLGMVVQWEDRFYKANRAHTYLGNPECESEIYPDFVTIAKGFNIPAVRVTKKSEVRAAIKKMLETPGPYLLDIIVPHQEHVLPMIPSGGAFKDMILDGDGRTVY
notes: as for B1

Substrate: CC(=O)C(=O)O
Assay: acetolactate to acetoin, creatine/naphthol colorimetric A525, Michaelis-Menten
Assay type: biochemical, Oryza sativa
Settings: pH 7.5 phosphate, 10 mM MgCl2, 20 uM FAD, 1 mM thiamine pyrophosphate, 37 °C, no herbicide
Source text: acetolactate to acetoin, creatine/naphthol colorimetric A525, Michaelis-Menten on AHAS-WT (rice acetohydroxyacid synthase)

| Protein | Km | kcat | kcat/Km |
| --- | --- | --- | --- |
| B1 | 9.4 ± 0.4 mM | 6.6 ± 0.5 s⁻¹ | 700 ± 50 M⁻¹ s⁻¹ |
| B2 | 9.2 ± 0.4 mM | 6.7 ± 0.3 s⁻¹ | 710 ± 30 M⁻¹ s⁻¹ |
